The nature of this data set: soluble on expression in E. coli; label from the status in PepcDB or PDB records.
Regarding “MKVRAIFLNFSVQLTPPSRLVILRNQSVFFSALLLNCPPLLPLPTEASPCYAVSESQPYARKQSCIITAARSAPSVDHIQVVLCRPHNSLLVCPSSHARSSTAVMATEDELRELLPKMRFNKEFKKKQKYQYKKRVEAREKEREIVTGKRRPASEQIQSASDGAKTKTTAAKKSGGAGRAGTKRKPKTRVPKLKVANVETGKETLTKKKARELVQENRKKKACAKKEPKLTAKSTRAGAATAAVVSSETLEGKQSKARVTKDELPATAAQAASSVEPTQTLTQAERDRELLARAIRGDDLLGSDAAAGVADDAAFIRQDPSLYPDHAFLDDYAEKKHAEAVSADELLQNAHHFFKKLSKQERALNKVAKEHINHLRAVNRRGGDKQGFRYVVPKNVKQVVRELLSAQKARDGDEDPETLVDTEQLVSTFGGDGVAETSEKPVRRSRRRRLRTYSDFYQFQVSRRWTRNAENFLKRSRSNKLLFEAKKHQRTIKHF”, the “soluble on expression in E. coli” value was “not soluble”.
Turning to “MGSDKIHHHHHHMQYIHVVNGDVAGNTLRQALAQAARPDPVVVLRDDLAVGPLVDVDSTGSIRSGFWQRVAPHTDIDFAAEMRQALDQLQKLRQSDMEIAIWHGQSAADQLMLRRVVFHLYQAPQRINEVAMDLRELELPPQAGLAAIGMYSPARLARRFSTIAPVSVLRLGRLGYEWQQNVRENADVRLWKGNTLVAAAYHSIDDIIMERAPSEWTPAAEVVGSVMGAIEGLLASDWFVFWRCRELISMGRMVLRGNADSLDTCELRRHVIASAE”, the “soluble on expression in E. coli” value was “not soluble”.
Take “MREILNHFDRPLNKKNSFQKIQNLSCQTHTKRFYREVKISCEEGGFSVLLDGCPVKTPAKRHFCLPTEVFAAFVAEEFENQKQVIDPAKMPMTRLVNTVIDGIADNMQAVFEDLLRFVACDMIFYRAQTPKELVQRQCEQWDPLLDWAEEKLGARFHVTEGLMHIEQSRESIQAVSNYLRKVESPYMLAALHTITTLTGSALIALAFSEGKIDSEHAWKIAHLDENWMMEQWGIDEETLARSSHKKSEFDAAGTIITTCLLEHHHHHH”: the “soluble on expression in E. coli” value is reported as “not soluble”.
Then “MGSDKIHHHHHHMARLSEGWSKEPFFLFFHPPKSPTKKENIKMNYRETLQAVDTEKALSVIGINSTLQGAYVKFNCPECEQQALIKAYGEKKNLWYCPKCKKSGHIISLTMTKKNIQWEEAKDLLLKARNGVKKITEEFNLKYDLQYNDFIKDKGLSEDICKFLEIGTPKGKTMLSGCVAFLVRDEVGMRVAYFGIKMKDEKHVFHKSFNPEQYLYGFQNLDFAYDVYFTTDLFECIKHIENGFQCVCNFGLPYISNEQMELLEKAERVTFSIRDELVKPFALQLTQRQKFYRFIK”, with “not soluble”; and “DKVQNAVMQAMVRGSLNKDLAAQIKDLGKTTEKRAMFIARDQSSKLNAALTQARHEEVGIKKYMWSASLDERVRESHAEKDGQIFEYANPPADTDHPGHDFNCRCVQI”, with “not soluble”; and “AKIGLFYGTQTGVTQTIAESIQQEFGGESIVDLNDIANADASDLNAYDYLIIGCPTWGVGELQSDWEGIYDDLDSVNFQGKKVAYFGAGDQVGYSDNFQDAMGILEEKISSLGSQTVGYWPIEGYDFNESKAVRNNQFVGLAIDEDNQPDLTKNRIKTWVSQLKSEFGL”, with “soluble”.
For “NCCVKGNSIYPQKTSTKQTGLMLDIARHFYSPEVIKSFIDTISLSGGNFLHLHFSDHENYAIESHLLNQRAENAVQGKDGIYINPYTGKPFLSYRQLDDIKAYAKAKGIELIPELDSPNHMTAIFKLVQKDRGVKYLQGLKSRQVDDEIDITNADSITFMQSLMSEVIDIFGDTSQHFHIGGDEFGYSVESNHEFITYANKLSYFLEKKGLKTRMWNDGLIKNTFEQINPNIEITYWSYDGDTQDKNEAAERRDMRVSLPELLAKGFTVLNYNSYYLYIVPKASPTFSQDAAFAAKDVIKNWDLGVWDGRNTKNRVQNTHEIAGAALSIWGEDAKALKDETIQKNTKSLLEAVIHKTNGDEHHHHHH”, the “soluble on expression in E. coli” value is given as “soluble”.
Consider “MLEESKNALRVFITGNPGVGKTTILLFLINKLSENNYKVAGFYCPEVRENGRRIGFRIVDITTNEGDWLAKENAPGRVKIGKYTVLEDSAKRITEITLSNINKADVLAIDEIGPMELKIPTIKKLIETILNNQKPLIAVLHRTQKPMGGRIYVITVENRDSIKYEILNYILSSLD”, for which the “soluble on expression in E. coli” value is recorded as “soluble”.
With “MHYSQMRWMFFCLTALLHGSFIVNAAKILVYCPSISKSHVLLCSKYADLLHNAGHDTVLFIPSYSKLLDNYDGAKHAKVWRLHNVTEAYDTKLGTLANVMENSHIGFIDRLTFDADFWIDMCADLLGKLPEMQHIIDYKFDLVIYNEIDPCTPAIVRLFNIPKTVLLSSEAIMDKVAWNLGKPMTTFAES”, the “soluble on expression in E. coli” value is “not soluble”.
“MCGRFVLFTTDESLLGHPALRIFHSIHAPKGMPPARYNIAPTTIIPILRVGTTPTEAVIEPARWGLIPAWKREVTLPPLFNARAETVTTKPSFRQAFSTQRCAIPMDGYYEWHNKKPYWITTGAPTWVAGLWDSGAGMLSATMITTDSVAPLDWLHHRMPRFLNNDELAVWLRGSADEASGLLTPGDASAFHTSLADPSVGNIRNDYPELIDAPTDLFSL”: the “soluble on expression in E. coli” value is “not soluble”.
As to “MPRVNIGPDNNAQIEITTLQSQSKSRKLKKIKMASGSERVVVVGVDDSAHSYHALETALDLFFIPFKANPRFKLVVLHARPTATFFLGVAGPGTVDIIPMVEEDLNKTADLVKKKCAEVCSAKSVEISSLEVIEGDPRNIMLEAVERHHA”, the “soluble on expression in E. coli” value is given as “soluble”.
Turning to “MAHHHHHHMEVEGTKERARGVTTFTRADLELREAAEDHRALLAEPWASHALRKGYSGREEHTKWITETWEAFERRKEDQKLYLERHDLCLQYKAAQLSETRRLSEQKSAALVEKMMALEAARKGALLQSRHFLFVDYYDYQQFLFRNQRSFVEDEEKLLRCKLSETEDDLMCLLVIQWHLSSHLHAAREKERVEEEAAAERLREFQYRQKLEEERLREEQRIAQEKEASQAEKEQAELEKRLERKRRDAERRAKVRAEREQRRAQE”, the “soluble on expression in E. coli” value is “not soluble”.
For “ATGGGTAATAATTTAATGCAGACGGACCTTTCCGTCTGGGGTATGTATCARCACGCCGATATTGTCGTTAAGTGCGTGATGATTGGGCTTATTTTGGCCTCCGTAGTCACCTGGGCAATCTTCTTCAGTAAGAGCGTAGAGTTCTTTAATCAGAAGCGTCGCCTTAAGCGCGAGCAGCAACTGCTGGCTGAAGCGCGTTCCTTAAACCAGGCCAACGATATCGCCGCTGATTTTGGTAGCAAAAGCTTAAGCCTGCATTTGCTCAATGAAGCGCAGAATGAGCTGGAACTGTCAGAAGGCAGCGACGATAACGAAGGTATTAAAGAACGTACCAGCTTCCGTCTGGAGCGTCGGGTCGCCGCAGTAGGTCGTCAAATGGGCCGCGGTAACGGCTATCTGGCAACCATCGGCGCGATTTCGCCGTTCGTTGGGCTGTTTGGTACGGTCTGGGGCATCATGAACAGCTTTATTGGTATCGCGCAAACGCAGACCACTAACCTGGCAGTCGTTGCGCCGGGTATCGCAGAAGCTCTGTTAGCAACGGCAATCGGTCTGGTGGCAGCGATTCCGGCGGTCGTTATCTATAACGTATTCGCGCGTCAGATTGGCGGCTTTAAAGCGATGCTGGGTGATGTCGCAGCGCAGGTATTGTTGCTGCAAAGCCGTGACCTGGATCTGGAAGCCAGCGCCGCTGCGCATCCGGTTCGTGTCGCACAAAAATTACGCGCAGGATAA”, the “soluble on expression in E. coli” value is “not soluble”.
Then “GSHMKFTRVCDRRDVPEGEALKVESGGTSVAIFNVDGELFATQDRCTHGDWSLSDGGYLEGDVVECSLHMGKFCVRTGKVKSPPPCEALKIFPIRIEDNDVLVDFEAGYLAP”, with “soluble”.
For “MTSDGATSTSAAAAAAAAAAARRKPSWRERENNRRRERRRRAVAAKIYTGLRAQGDYNLPKHCDNNEVLKALCVEAGWVVEEDGTTYRKPLPGEIAGTSSRVTPYSSQNQSPLSSAFQSPIPSYQVSPSSSSFPSPSRGEPNNNMSSTFFPFLRNGGIPSSLPSLRISNSCPVTPPVSSPTSKNPKPLPNWESIAKQSMAIAKQSMASFNYPFYAVSAPASPTHRHQFHTPATIPECDESDSSTVDSGHWISFQKFAQQQPFSASMVPTSPTFNLVKPAPQQMSPNTAAFQEIGQSSEFKFENSQVKPWEGERIHDVGMEDLELTLGNGKARG”, the “soluble on expression in E. coli” value is listed as “soluble”.

The values are drawn from the DeepSol protein solubility set.
